Results published in PMC3114554.

Tests used:
Assay in all cases: FRET or BRET
[1] = target: CFP-tagged KCNQ2 (human)
[2] = target: CFP-tagged KCNQ4 (human) (UniProt P56696)
[3] = target: CFP-tagged KCNQ3 (human) (UniProt O43525)
Sequence of UniProt O43525 (O43525 whole entry): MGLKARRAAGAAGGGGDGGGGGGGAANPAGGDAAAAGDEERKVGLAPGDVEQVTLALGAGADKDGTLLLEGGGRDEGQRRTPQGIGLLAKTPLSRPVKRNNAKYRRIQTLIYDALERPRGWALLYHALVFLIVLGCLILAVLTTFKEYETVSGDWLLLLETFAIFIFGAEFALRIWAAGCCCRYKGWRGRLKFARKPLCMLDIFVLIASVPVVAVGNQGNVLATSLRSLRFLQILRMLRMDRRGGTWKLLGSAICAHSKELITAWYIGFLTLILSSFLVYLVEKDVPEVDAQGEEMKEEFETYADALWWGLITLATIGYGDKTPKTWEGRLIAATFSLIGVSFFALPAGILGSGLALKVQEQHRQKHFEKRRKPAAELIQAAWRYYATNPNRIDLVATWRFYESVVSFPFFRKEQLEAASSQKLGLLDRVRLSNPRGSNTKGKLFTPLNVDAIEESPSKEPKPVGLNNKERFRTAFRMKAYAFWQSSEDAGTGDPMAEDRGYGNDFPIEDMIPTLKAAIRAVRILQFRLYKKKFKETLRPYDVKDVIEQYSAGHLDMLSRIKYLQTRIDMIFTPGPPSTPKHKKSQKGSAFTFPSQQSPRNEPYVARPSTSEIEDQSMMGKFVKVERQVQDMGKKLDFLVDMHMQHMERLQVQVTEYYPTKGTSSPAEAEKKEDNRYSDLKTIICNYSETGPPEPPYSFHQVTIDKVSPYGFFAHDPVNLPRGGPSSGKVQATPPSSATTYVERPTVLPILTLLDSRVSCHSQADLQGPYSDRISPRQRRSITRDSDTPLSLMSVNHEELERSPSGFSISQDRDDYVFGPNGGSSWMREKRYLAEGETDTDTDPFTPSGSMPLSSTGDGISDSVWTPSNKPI

Sequence of UniProt P56696 (P56696 whole entry): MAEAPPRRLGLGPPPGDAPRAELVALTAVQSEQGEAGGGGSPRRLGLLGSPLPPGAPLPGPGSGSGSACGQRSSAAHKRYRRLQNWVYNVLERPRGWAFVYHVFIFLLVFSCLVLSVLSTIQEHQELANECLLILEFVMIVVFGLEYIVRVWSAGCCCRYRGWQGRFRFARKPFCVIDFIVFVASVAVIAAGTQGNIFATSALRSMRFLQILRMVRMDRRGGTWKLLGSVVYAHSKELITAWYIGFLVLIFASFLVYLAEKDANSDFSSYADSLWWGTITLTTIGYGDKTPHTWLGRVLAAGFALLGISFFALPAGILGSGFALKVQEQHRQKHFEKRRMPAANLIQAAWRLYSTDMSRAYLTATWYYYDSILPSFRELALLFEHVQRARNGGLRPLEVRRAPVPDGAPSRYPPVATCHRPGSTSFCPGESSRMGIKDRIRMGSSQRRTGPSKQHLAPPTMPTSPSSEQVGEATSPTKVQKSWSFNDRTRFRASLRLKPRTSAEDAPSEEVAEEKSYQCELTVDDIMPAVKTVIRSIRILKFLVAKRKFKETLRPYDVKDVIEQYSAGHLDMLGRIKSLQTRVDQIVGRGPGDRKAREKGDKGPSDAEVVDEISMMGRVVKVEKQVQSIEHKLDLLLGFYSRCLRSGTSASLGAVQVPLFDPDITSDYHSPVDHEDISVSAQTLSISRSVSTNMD

- FRET efficiency [1]: 17%
- FRET efficiency [2]: 16%
- FRET efficiency [3]: 13%
Substance: YFP-tagged ΔA-AKAP79 (from UniProt P24588 1-427) (natural protein)
